Experimental data taken from paper PMC8113490, “Androgen signaling uses a writer and a reader of ADP-ribosylation to regulate protein complex assembly” (Nature Communications, 2021).

Key:
[1] = target: Flag-AR 4CG (C125, 290, 327, 406G) (human) (UniProt P10275); assay: co-IP; AR IP from PC3M/HA-Parp7 cells stably expressing Flag-tagged WT AR or Cys-to-Gly mutants, treated +R1881; probed for AR, ADP-ribosylation, Dtx3L and Parp9
Parp7 = target: T1, Parp7 (Homo sapiens, UniProt Q7Z3E1); assay: in vitro ADP-ribosylation of AR and automodification with recombinant Parp7 and NAD+; format: biochemical
T1 construct: gene TIPARP; N-terminal His6-T7-tagged Parp7 expressed in Sf21 insect cells
T1 sequence (Q7Z3E1 1-657): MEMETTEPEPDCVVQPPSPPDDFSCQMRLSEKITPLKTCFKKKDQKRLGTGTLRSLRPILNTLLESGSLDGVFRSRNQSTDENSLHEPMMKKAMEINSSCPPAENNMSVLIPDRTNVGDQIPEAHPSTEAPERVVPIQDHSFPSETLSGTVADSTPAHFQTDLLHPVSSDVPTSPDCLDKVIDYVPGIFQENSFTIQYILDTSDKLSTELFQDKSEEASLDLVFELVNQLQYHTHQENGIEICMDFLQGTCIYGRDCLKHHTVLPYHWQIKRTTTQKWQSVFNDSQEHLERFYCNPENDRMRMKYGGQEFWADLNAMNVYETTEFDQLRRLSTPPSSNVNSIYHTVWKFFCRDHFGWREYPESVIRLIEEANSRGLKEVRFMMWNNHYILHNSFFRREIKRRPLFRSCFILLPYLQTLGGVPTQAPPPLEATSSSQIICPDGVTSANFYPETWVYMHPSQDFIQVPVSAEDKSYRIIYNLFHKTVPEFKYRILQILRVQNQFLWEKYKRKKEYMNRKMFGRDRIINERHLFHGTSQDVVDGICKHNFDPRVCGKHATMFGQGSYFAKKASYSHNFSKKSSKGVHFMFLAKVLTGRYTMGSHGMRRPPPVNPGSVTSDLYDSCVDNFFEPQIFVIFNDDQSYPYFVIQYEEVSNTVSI

Sequence of Flag-AR 4CG (C125, 290, 327, 406G) (human) (P10275 whole entry C125G/C290G/C327G/C406G): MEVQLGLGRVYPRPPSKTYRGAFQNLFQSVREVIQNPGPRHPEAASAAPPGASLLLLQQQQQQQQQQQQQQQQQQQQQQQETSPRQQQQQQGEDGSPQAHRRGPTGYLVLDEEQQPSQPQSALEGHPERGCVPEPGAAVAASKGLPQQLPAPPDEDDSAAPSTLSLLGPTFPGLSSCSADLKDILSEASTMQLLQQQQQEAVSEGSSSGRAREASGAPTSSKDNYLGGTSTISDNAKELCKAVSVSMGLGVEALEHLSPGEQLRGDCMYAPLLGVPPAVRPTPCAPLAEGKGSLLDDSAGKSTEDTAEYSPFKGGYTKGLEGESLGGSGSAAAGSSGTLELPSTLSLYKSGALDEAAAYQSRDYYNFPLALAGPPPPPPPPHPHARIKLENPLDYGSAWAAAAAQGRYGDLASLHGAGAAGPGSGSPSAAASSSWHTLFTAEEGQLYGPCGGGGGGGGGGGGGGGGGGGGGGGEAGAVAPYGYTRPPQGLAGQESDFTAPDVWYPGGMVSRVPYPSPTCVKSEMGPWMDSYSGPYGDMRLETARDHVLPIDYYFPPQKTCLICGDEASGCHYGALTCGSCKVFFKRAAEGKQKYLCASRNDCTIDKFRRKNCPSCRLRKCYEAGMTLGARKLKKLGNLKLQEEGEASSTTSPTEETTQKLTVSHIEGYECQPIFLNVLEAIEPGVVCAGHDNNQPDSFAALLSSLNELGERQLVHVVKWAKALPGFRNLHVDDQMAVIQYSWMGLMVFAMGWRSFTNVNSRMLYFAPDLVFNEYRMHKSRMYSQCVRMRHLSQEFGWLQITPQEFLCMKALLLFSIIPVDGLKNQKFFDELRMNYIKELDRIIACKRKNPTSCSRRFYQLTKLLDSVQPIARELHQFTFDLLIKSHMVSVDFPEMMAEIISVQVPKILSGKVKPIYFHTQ

| complex formation, percent of WT [1] | Molecule | in vitro ADP-ribosylation of AR and automodification with recombinant Parp7 and (Parp7) |
| --- | --- | --- |
| 50 % of WT | Parp9 (enzyme) |  |
|  | NC(=O)c1ccc[n+]([C@@H]2O[C@H](COP(=O)([O-])OP(=O)(O)OC[C@H]3O[C@@H](n4cnc5c(N)ncnc54)[C@H](O)[C@@H]3O)[C@@H](O)[C@H]2O)c1 [NAD^+] | Combining recombinant Parp7, NAD^+, and bead-immobilized AR reconstituted ADP-ribosylation |
